Results on 167 variants are retold here after the Human Domainome abundance scans (Beltran et al. 2025).

± gives the uncertainty stated by the source.

B1: Integrator complex subunit 12, residues 155 to 213; numbered along this chain, Q96CB8 (parent)
chain: AMEMGLACVVCRQMMVASGNQLVECQECHNLYHRDCHKPQVTDKEANDPRLVWYCARCT

Variants of B1 are the subject of the data set. As to the kind of experiment: abundance fitness (aPCA) (normalised: wild type 0, dead -1); higher = more abundant; growth selection in yeast, the domain comes from the species named. As to conditions: Homo sapiens.
As to A46H, the abundance fitness is -0.181 ± 0.072.
The value for A46R was -0.089 ± 0.039; that for A46F was 0.07 ± 0.077; that for A46L was 0.003 ± 0.048.
To A46Y belongs -0.029 ± 0.071; to A46T, -0.136 ± 0.068; to A46Q, -0.079 ± 0.062.
To Q13V belongs -0.114 ± 0.041; to Q13I, -0.147 ± 0.035.
Turning to Q13R, the abundance fitness was -0.2 ± 0.043.
To Q13W belongs -0.758 ± 0.07; to Q13N, -0.024 ± 0.036.
The value for Q13D was -0.075 ± 0.046.
To Q13C belongs -0.125 ± 0.038.
For Q13S, the abundance fitness was -0.033 ± 0.032.
The value for Q13F was -0.354 ± 0.035; that for Q13G was -0.17 ± 0.044; that for Q13L was -0.088 ± 0.033.
To M2N belongs -0.112 ± 0.04; to M2E, -0.046 ± 0.09.
The value for M2W was -0.167 ± 0.075.
For M2S, the abundance fitness amounted to 0.065 ± 0.032.
To M2A belongs -0.142 ± 0.043; to M2R, -0.054 ± 0.038; to M2P, -0.31 ± 0.075.
To M2H belongs -0.136 ± 0.059.
Consider M2L, for which the abundance fitness was -0.003 ± 0.038.
To D48V belongs -0.063 ± 0.057; to D48S, -0.119 ± 0.062.
To D48Q belongs -0.002 ± 0.063.
The value for D48K was -0.027 ± 0.056; that for D48G was -0.083 ± 0.045; that for D48E was -0.054 ± 0.052.
Consider N47W, for which the abundance fitness was -0.154 ± 0.064.
To N47I belongs -0.11 ± 0.081; to N47S, 0.035 ± 0.041; to N47Q, -0.092 ± 0.053.
The value for N47A was -0.166 ± 0.053; that for M15Q was 0.115 ± 0.071; that for M15K was 0.094 ± 0.064.
For M15W, the abundance fitness was -0.171 ± 0.048.
The value for M15T was 0.04 ± 0.039; that for M15L was -0.013 ± 0.036.
To M15R belongs 0.023 ± 0.032; to M15I, 0.028 ± 0.034; to M15S, 0.079 ± 0.03.
The value for M15N was 0.063 ± 0.034; that for M15A was 0.067 ± 0.037.
Turning to S18N, the abundance fitness amounted to 0.015 ± 0.035.
To S18D belongs 0.043 ± 0.035; to S18M, -0.078 ± 0.057.
To T59N belongs -0.205 ± 0.16; to L51N, -0.197 ± 0.077.
Take L51S: the abundance fitness turned out to be 0.049 ± 0.051.
The value for L51T was 0.037 ± 0.07; that for L51H was 0.063 ± 0.11.
The value for L31P was -0.164 ± 0.052; that for L31H was 0.057 ± 0.04; that for L31E was -0.358 ± 0.059.
The value for L31T was 0.055 ± 0.039.
As for L31Q, the abundance fitness was 0.084 ± 0.07.
To K38Y belongs -0.134 ± 0.071; to K38D, 0.081 ± 0.074; to K38L, -0.096 ± 0.041.
The value for K38C was -0.089 ± 0.077; that for K38F was -0.139 ± 0.073.
As to E27A, the abundance fitness was -0.044 ± 0.036.
The value for E27F was -0.143 ± 0.035.
To E27N belongs -0.009 ± 0.036; to A17K, 0.037 ± 0.06.
For A17M, the abundance fitness is -0.049 ± 0.061.
Take Y32H: the abundance fitness is -0.254 ± 0.047.
The value for Y32W was 0.045 ± 0.058; that for Y32K was -0.514 ± 0.066; that for Y32S was -0.315 ± 0.033.
The value for Y32V was -0.159 ± 0.032.
The value for Y32C was -0.207 ± 0.04; that for V52I was -0.095 ± 0.057.
Regarding V52H, the abundance fitness was -0.036 ± 0.076.
The value for V52C was -0.009 ± 0.092.
To V52Y belongs -0.284 ± 0.087; to V52K, 0.103 ± 0.065; to L6D, 0.075 ± 0.038.
Regarding L6H, the abundance fitness was 0.038 ± 0.039.
For L6R, the abundance fitness is -0.08 ± 0.038.
As for L6T, the abundance fitness was 0.041 ± 0.04.
Regarding L6C, the abundance fitness was -0.054 ± 0.037.
The value for L6Q was 0.014 ± 0.064; that for L6F was -0.081 ± 0.036.
To L6P belongs -0.03 ± 0.046; to R50G, 0.014 ± 0.049; to R50H, -0.06 ± 0.11.
To C11T belongs -0.933 ± 0.061.
Consider C11Y, for which the abundance fitness is -1 ± 0.05.
The value for C11W was -0.958 ± 0.12.
The value for C11I was -0.856 ± 0.049; that for C11M was -1.07 ± 0.14.
For the variant C11S, the abundance fitness was -0.877 ± 0.046.
The value for C11G was -0.958 ± 0.06; that for C11V was -1.06 ± 0.07; that for C11R was -0.885 ± 0.061.
For the variant C11H, the abundance fitness is -0.839 ± 0.055.
To P39L belongs -0.294 ± 0.045; to P39W, -0.363 ± 0.049; to P39H, -0.347 ± 0.12.
As to P39M, the abundance fitness is -0.248 ± 0.064.
The value for P39C was 0.045 ± 0.09; that for E3V was -0.119 ± 0.033.
The value for E3K was -0.089 ± 0.065; that for E3Q was -0.102 ± 0.071.
To E3A belongs -0.103 ± 0.04; to E3D, -0.065 ± 0.037.
Take E3S: the abundance fitness was -0.038 ± 0.031.
To E3I belongs -0.238 ± 0.041; to E3N, -0.056 ± 0.039.
The value for K44M was -0.036 ± 0.05.
As for K44G, the abundance fitness was 0.023 ± 0.04.
To K44W belongs -0.306 ± 0.067; to K44H, -0.124 ± 0.079; to K44N, 0.119 ± 0.12.
The value for K44D was 0.078 ± 0.059.
Turning to K44E, the abundance fitness is 0.042 ± 0.052.
The value for Q26Y was -0.017 ± 0.051; that for Q26E was -0.013 ± 0.086.
As to Y54E, the abundance fitness is -0.069 ± 0.047.
To Y54G belongs -0.187 ± 0.049; to N20K, 0.02 ± 0.072.
The value for N20L was -0.219 ± 0.035.
The value for N20F was -0.165 ± 0.035.
As to N20P, the abundance fitness is -0.011 ± 0.048.
The value for N20G was -0.05 ± 0.032.
Turning to N20M, the abundance fitness was -0.387 ± 0.069.
The value for N20S was -0.036 ± 0.03; that for G5P was -0.053 ± 0.051; that for G5M was -0.152 ± 0.055.
The value for G5A was -0.001 ± 0.036; that for G5C was -0.143 ± 0.034.
Take G5F: the abundance fitness was -0.28 ± 0.035.
G5Q: the abundance fitness worked out at 0.085 ± 0.052.
To G5H belongs 0.026 ± 0.042; to C8R, -0.841 ± 0.057.
The value for C8V was -1.14 ± 0.078; that for C8F was -1 ± 0.051; that for C8N was -0.675 ± 0.042.
To C8P belongs -0.633 ± 0.054.
Take C8D: the abundance fitness was -0.787 ± 0.066.
The value for C8W was -1.38 ± 0.22; that for A56C was -0.02 ± 0.075; that for A56K was -0.169 ± 0.057.
The value for A56D was -0.273 ± 0.064.
For the variant A56H, the abundance fitness was -0.031 ± 0.11.
A56N: the abundance fitness was -0.209 ± 0.11.
To C36A belongs -0.671 ± 0.043.
To C36E belongs -0.696 ± 0.066.
The value for C36P was -0.585 ± 0.058.
As to C36Q, the abundance fitness is -0.672 ± 0.077.
To C36R belongs -0.619 ± 0.039.
C36G: the abundance fitness was -0.606 ± 0.033.
The value for C36K was -0.79 ± 0.078.
To C36L belongs -0.763 ± 0.043; to M14E, 0.042 ± 0.059; to M14R, 0.067 ± 0.046.
For the variant M14N, the abundance fitness stood at 0.031 ± 0.036.
The value for M14I was 0.028 ± 0.042; that for M14P was -0.007 ± 0.14; that for M14Q was 0.082 ± 0.28.
Consider M14A, for which the abundance fitness turned out to be 0.06 ± 0.043.
